To fix the notation:
B1: GST-CD36 fusion protein FP67-157 (domain or fragment, human, UniProt P16671 67-157, looked up)
chain: IFDVQNPQEVMMNSSNIQVKQRGPYTYRVRFLAKENVTQDAEDNTVSFLQPNGAIFEPSLSVGTEADNFTVLNLAVAAASHIYQNQFVQMI
B2: GST-CD36 fusion protein FP93-120 (domain or fragment, human, UniProt P16671 93-120, looked up)
chain: YRVRFLAKENVTQDAEDNTVSFLQPNGA

Common to all, as to assay: radioligand binding
The target in one test is Thrombospondin-1 (human, UniProt P07996 19-1170, 125I label (radiolabeled TSP-1) in the binding assays).
Test [1] addresses CD36 expressed on Bowes melanoma cells stably transfected with human CD36 cDNA (human, UniProt P16671 1-472).
Test [2] concerns the target B2.

CD36 expressed on Bowes melanoma cells stably transfected with human CD36 cDNA, sequence (P16671 whole entry): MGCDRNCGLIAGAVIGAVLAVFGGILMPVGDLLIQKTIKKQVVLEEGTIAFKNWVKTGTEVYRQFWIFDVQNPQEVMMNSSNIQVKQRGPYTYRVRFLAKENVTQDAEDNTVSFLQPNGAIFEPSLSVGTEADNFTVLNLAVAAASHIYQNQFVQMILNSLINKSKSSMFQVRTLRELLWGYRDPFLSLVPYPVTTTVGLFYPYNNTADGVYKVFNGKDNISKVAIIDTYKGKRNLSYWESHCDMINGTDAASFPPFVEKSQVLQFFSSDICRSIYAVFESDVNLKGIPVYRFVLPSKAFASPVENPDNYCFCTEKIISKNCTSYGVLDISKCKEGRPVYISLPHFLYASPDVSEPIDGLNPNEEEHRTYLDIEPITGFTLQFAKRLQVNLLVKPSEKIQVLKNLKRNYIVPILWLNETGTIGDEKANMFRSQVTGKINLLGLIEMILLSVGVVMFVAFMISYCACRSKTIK
Thrombospondin-1, sequence (P07996 19-1170): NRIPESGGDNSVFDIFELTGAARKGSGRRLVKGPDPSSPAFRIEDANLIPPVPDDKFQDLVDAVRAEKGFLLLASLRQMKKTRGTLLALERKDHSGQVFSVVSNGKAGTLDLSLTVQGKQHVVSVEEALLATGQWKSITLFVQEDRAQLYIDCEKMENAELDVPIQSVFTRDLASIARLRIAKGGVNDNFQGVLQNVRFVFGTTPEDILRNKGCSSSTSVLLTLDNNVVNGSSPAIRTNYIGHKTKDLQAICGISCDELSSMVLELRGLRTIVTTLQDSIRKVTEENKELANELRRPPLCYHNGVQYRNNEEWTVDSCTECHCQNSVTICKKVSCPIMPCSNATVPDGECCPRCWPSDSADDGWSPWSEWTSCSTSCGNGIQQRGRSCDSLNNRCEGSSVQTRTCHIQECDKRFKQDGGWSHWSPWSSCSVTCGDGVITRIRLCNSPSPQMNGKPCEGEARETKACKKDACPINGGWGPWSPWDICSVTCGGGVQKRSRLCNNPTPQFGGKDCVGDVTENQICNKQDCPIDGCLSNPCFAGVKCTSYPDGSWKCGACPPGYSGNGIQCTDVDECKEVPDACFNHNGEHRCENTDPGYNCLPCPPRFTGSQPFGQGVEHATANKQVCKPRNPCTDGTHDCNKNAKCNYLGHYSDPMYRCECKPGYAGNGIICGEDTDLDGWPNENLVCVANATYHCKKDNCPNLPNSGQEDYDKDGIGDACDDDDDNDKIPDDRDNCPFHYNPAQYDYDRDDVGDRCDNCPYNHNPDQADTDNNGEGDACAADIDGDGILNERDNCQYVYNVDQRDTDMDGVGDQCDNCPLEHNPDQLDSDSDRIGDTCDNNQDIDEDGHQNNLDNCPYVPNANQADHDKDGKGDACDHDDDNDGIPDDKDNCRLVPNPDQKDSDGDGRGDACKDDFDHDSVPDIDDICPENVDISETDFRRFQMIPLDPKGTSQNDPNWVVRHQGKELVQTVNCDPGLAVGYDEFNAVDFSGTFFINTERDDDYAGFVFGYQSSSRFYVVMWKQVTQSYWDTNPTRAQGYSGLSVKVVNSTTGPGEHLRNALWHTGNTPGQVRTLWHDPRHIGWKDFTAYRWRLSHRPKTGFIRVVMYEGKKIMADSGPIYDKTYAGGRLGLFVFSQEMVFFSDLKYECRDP

B1: the binding result with Thrombospondin-1 is on record as “binds”. One may read the IC50 as the concentration that inhibits the measured activity by half. As to NGVQYRN [TSP-1 peptide Col overlap], the IC50 in test [1] was 30.1 ± 8.88 µM.

In the case of B2, the binding result with Thrombospondin-1 is recorded as “binds”.

In turn, SPWDIASVTAGGGVQKRSK [TSP-1 peptide Mal III] registered an IC50 in test [1] of 8.6 ± 1.12 µM. Moreover, the binding result in test [2] is given as “binds”.
